Measured values as given in US5972902, “DNA encoding human IL-6 receptor antagonist and protein encoded thereby” (dated 1999).
Substitutions are numbered along the chain they refer to. Numbers in names are those of the source. One block for each molecule: values may come before it.

Tests used:
hIL-6 receptor [1] = target: T1, hIL-6 receptor (human, UniProt P08887)
hIL-6 receptor [2] = target: T1, hIL-6 receptor; experiment: receptor binding assay by the method of Savino et al. 1994
Procedure: The proteins IL-6 DFRD/D160R (coded by the cDNA described in SEQ ID NO:4), IL-6 DFRD/W157R/D160R (coded by the cDNA described in SEQ ID NO:5) and IL-6 DFRD/T162D (coded by the cDNA described in SEQ ID NO:6) were produced according to the state of the art, as described (Arcone, R., Pucci, P., Zappacosta, F., Fontaine, V., Malorni, A., Marino, G., and Ciliberto, G., Eur. J. Biochem. 198, 541–547, 1991). The ability of the mutants to bind to the hIL-6 receptor was measured using state of the art methods, as described (Savino, R., Lahm, A., Salvati, A. L., Ciapponi, L., Sporeno, E., Altamura, S., Paonessa, G., Toniatti, C., Ciliberto, G., EMBO J. 13, 1357–1367, 1994). Table 1 below gives the receptor binding levels for wild type IL-6 and for the mutant forms obtained as described in example 1.

gp130 = gp130 (Homo sapiens (Human), UniProt P40189); experiment: cell-based or functional assay

- 90% inhibition of interleukin-6 activity on hepatoma cells Hep3B (4 ng/ml wild type IL-6) (hIL-6 receptor [1]): 30 ng/mL
- 90% inhibition of interleukin-6 activity on myeloma cells XG-1 (IL-6-dependent growth, 0.1 ng/ml wild type IL-6) (hIL-6 receptor [1]): 35 ng/mL
- 90% inhibition of interleukin-6 activity on myeloma cells XG-2 (IL-6-dependent growth, 0.5 ng/ml wild type IL-6) (hIL-6 receptor [1]): 950 ng/mL
Molecule: Sant7 (ligand)

- ability to bind to the IL-6 receptor (% of wild type) (hIL-6 receptor [2]): 130%
- Biological activity on human hepatoma cells (gp130): 0%
B2: IL-6 DFRD/W157R/D160R (ligand)
chain: PVPPGEDSKDVAAPHRQPLTSSERIDKQIRDILDFISALRKETCNKSNMCESSKEALAENNLNLPKMAEKDGCFQSGFNEETCLVKIITGLLEFEVYLEYLQNRFESSEEQARAVQMRTKDLIQFLQKKAKNLDAITTPDPTTNASLLTKLQAQNQRLQRMTTHLILRSFKEFLQSSLRALRQM

Further lines, the molecule ahead of its results:

B1: IL-6 DFRD/D160R (ligand)
chain: B2 chain with R157W
- ability to bind to the IL-6 receptor (% of wild type) (hIL-6 receptor [2]): 137%

B3: IL-6 DFRD/T162D (ligand)
chain: B2 chain with R157W, R160D, T162D
- ability to bind to the IL-6 receptor (% of wild type) (hIL-6 receptor [2]): 39%
- Biological activity on human hepatoma cells (gp130): 0%
